Measured values as given in US20220332800A1 (Takeda / Millennium, published 2022).

What was measured:
[1] = target: T1, ZIKV-VLP (Native Antigen Inc.) (Zika virus); test: BLI binning on ZIKV-VLP; 1st mAb: 11-3
T1 construct: also called Zika VLP; ZVLP

[2] = target: T1, ZIKV-VLP (Native Antigen Inc.); test: BLI binning on ZIKV-VLP; 1st mAb: 289-3
[3] = target: T1, ZIKV-VLP (Native Antigen Inc.); test: BLI (Octet), supernatant IgG captured on Protein A biosensor, ZIKV-VLP 3.3 µg/mL in solution, 1:1 model
[4] = target: T1, ZIKV-VLP (Native Antigen Inc.); test: indirect ELISA, purified antibody serially diluted from 10 µg/ml
[5] = target: T1, ZIKV-VLP (Native Antigen Inc.); test: BLI binning on ZIKV-VLP; 1st mAb: 4G2
[6] = target: T1, ZIKV-VLP (Native Antigen Inc.); test: BLI binning on ZIKV-VLP; 1st mAb: C10
[7] = target: T1, ZIKV-VLP (Native Antigen Inc.); test: ELISA, hybridoma supernatant (Abcam data)
[8] = target: T1, ZIKV-VLP (Native Antigen Inc.); test: BLI binning on ZIKV-VLP; 1st mAb: 329-2
[9] = target: T1, ZIKV-VLP (Native Antigen Inc.); test: BLI binning on ZIKV-VLP; 1st mAb: 78-2
[10] = target: T1, ZIKV-VLP (Native Antigen Inc.); test: BLI binning on ZIKV-VLP; 1st mAb: 102-1
[11] = target: T1, ZIKV-VLP (Native Antigen Inc.); test: BLI binning on ZIKV-VLP; 1st mAb: Ab1
[12] = target: T1, ZIKV-VLP (Native Antigen Inc.); test: BLI binning on ZIKV-VLP; 1st mAb: Ab2
[13] = target: T1, ZIKV-VLP (Native Antigen Inc.); test: BLI binning on ZIKV-VLP; 1st mAb: 181-4
[14] = target: T1, ZIKV-VLP (Native Antigen Inc.); test: BLI binning on ZIKV-VLP; 1st mAb: 260-2
[15] = target: T1, ZIKV-VLP (Native Antigen Inc.); test: BLI binning on ZIKV-VLP; 1st mAb: 242-3
[16] = target: T1, ZIKV-VLP (Native Antigen Inc.); test: BLI binning on ZIKV-VLP; 1st mAb: 306-2
[17] = target: T1, ZIKV-VLP (Native Antigen Inc.); test: BLI binning on ZIKV-VLP; 1st mAb: 270-12
[18] = target: T1, ZIKV-VLP (Native Antigen Inc.); test: BLI binning on ZIKV-VLP; 1st mAb (row): 306-2
[19] = target: T1, ZIKV-VLP (Native Antigen Inc.); test: BLI binning on ZIKV-VLP; 1st mAb (row): 289-3
[20] = target: T1, ZIKV-VLP (Native Antigen Inc.); test: ELISA, purified recombinant mAb
[21] = target: T1, ZIKV-VLP (Native Antigen Inc.); test: BLI binning on ZIKV-VLP; 1st mAb (row): 102-1
[22] = target: T1, ZIKV-VLP (Native Antigen Inc.); test: indirect ELISA, subclone supernatant
[23] = target: T1, ZIKV-VLP (Native Antigen Inc.); test: BLI binning on ZIKV-VLP; 1st mAb (row): C10
[24] = target: T1, ZIKV-VLP (Native Antigen Inc.); test: BLI binning on ZIKV-VLP; 1st mAb (row): 242-3
[25] = target: T1, ZIKV-VLP (Native Antigen Inc.); test: BLI binning on ZIKV-VLP; 1st mAb (row): 270-12

Binder	response of 2nd mAb [1]	response of 2nd mAb [2]	koff [3] [s⁻¹]	EC50 [4] [µg/mL]	response of 2nd mAb [5]	response of 2nd mAb [6]	OD [7] [OD]	response of 2nd mAb [8]	response of 2nd mAb [9]	response of 2nd mAb [10]	response of 2nd mAb [11]	response of 2nd mAb [12]	response of 2nd mAb [13]	response of 2nd mAb [14]	response of 2nd mAb [15]	response of 2nd mAb [16]	response of 2nd mAb [17]	response of 2nd mAb [18]	response of 2nd mAb [19]	response of 2nd mAb [21]	further results
anti-ZIKV antibody 11-3 (antibody, V domains shown, also called clone 11-3) VH: QEQLVESGGGLVQPEGSLTITCTGSGFSFSSRFYMCWVRQAPGKGLEWIACIYGGSSGSTYYASWAKGRFTISKTSSTTVTLQISSLTAADTATYFCARGGSTAAAGFNLWGPGTLLTVSS VL: DVVMTQTPASVSATVGGTVTIKCQASEDIYNLLAWYQQKPGQPPKLLIYYASTLASGVPSRFKGSGSGTEFTLTISDLECADAATYYCQCNDYGGTYVPNAFGGGTEVVVKG	0.06	0.42	< 1e-07	0.00657	0.75	3.14	2.83	0.44	0.23	0.45	0.41	2.71	0.39	0.47	0.42	0.43	0.38	–	–	–	–
anti-ZIKV antibody 242-3 (antibody, V domains shown, also called clone 242-3) VH: QAQLEESGGDLVKPEGSLTLTCTASGFSFTDRHYMCWIRQAPGKGLEWIACVYPGSSGSTYYASWARGRFTISKTSSTTVTLRMTSLTAADTATYFCARSSYPDSSGYSYGMDLWGPGTLVTVSS VL: DIVMTQTPASVEAAVGGTVTIKCQASQNINSNLAWYQQKPGQRPKFLMYLTSKLASGVPSRFRGSGSGTQFTLTISDLECADAATYYCQTYYDISNYGYAFGGGTEVVVK	0.4	0.04	< 1e-07	–	0.93	5.12	0.97	-0.01	0.18	0.1	0.25	7.67	0.02	0.06	0.08	0.08	0.04	0.0732	0.0219	0.0181	ELISA OD [20]: 3.07 OD; VLP (OD) binding [22]: 0.97 OD; response of 2nd mAb [23]: 0.0363; response of 2nd mAb [24]: 0.005; response of 2nd mAb [25]: 0.0325
anti-ZIKV antibody 270-12 (antibody, V domains shown, also called clone 270-12) VH: QAQLEESGGDLVKPEGSLTLTCTASGFSFTDRHYMCWVRQAPGKGLEWIACVYPGSSGSTYYASWARGRFTISKTSSTTVTLRMTSLTAADTATYFCARSSYPDSSGYSYGMDLWGPGTLVTVSS VL: DIVMTQTPASVEAAVGGTVTIKCQASQDINSNLAWYQQKPGQRPKFLMYLTSKLASGVPSRFRGSGSGTQFTLTISDLECADAATYYCQTYYDISNYGYAFGGGTEVVVKG	0.47	0.02	–	0.0128	0.91	4.27	1.27	0	0.44	0.07	0.34	3.5	0.01	0	0.04	0.31	0.02	0.0432	0.0261	-0.004	response of 2nd mAb [23]: 0.0344; response of 2nd mAb [24]: -0.0103; response of 2nd mAb [25]: 0.0171
anti-ZIKV antibody 78-2 (antibody, V domains shown, also called clone 78-2) VH: QQQLVESGGGLVKPGASLTLNCKASGLDFSTNSYMCWVRQAPGKGLEWIACIYVGDSSEIYYASWAKGRFTISKTSSTTVTLQMTSLTAADTATYFCARDLPSFTAPYAGYLRLWGPGTLVTVSS VL: QPVLTQPPSLSASLGTTARLTCTLRTGYNVGDYPLLWLQRVPGRPPRYLLTYHTEEFKHQGSGVHSRFSGSKDASENAGVLSISGLQPEDEANYYCYTVHATESSLHYVFGGGTQLTVTG	0.42	0.32	< 1e-07	0.0319	0.52	3.41	2.67	0.33	0.06	0.32	0.38	2.46	0.3	0.33	0.33	0.28	0.28	–	–	–	–
anti-ZIKV antibody 306-2 (antibody, V domains shown) VH: QSLEESGGDLVKPGASLTLTCTASGFDFSDRYYMCWVRQAPGKGLEWIGCIYVGSGDTYYASWAKGRFTISRTSSTTVTLQMTRLTAADTATYFCARHPGTYFTLWGPGTLVTVSS VL: DVVMTQTPSSVSAAVGGTVTINCQASQNIVNNLAWYQQRPGQPPKLLIYDTSTLASGVPSRFKGSGSGTEFTLTISDLECADAATYYCQTYYYYNKIINGFGGGTEVVVKG	0.34	0.03	< 1e-07	–	0.64	4.54	1.15	-0.03	0.26	0.07	0.19	4.51	-0.02	0	0.04	0.01	-0.01	0.0225	0.023	0.0269	ELISA OD [20]: 3.3 OD; VLP (OD) binding [22]: 1.15 OD; response of 2nd mAb [23]: -0.0006; response of 2nd mAb [24]: 0.019; response of 2nd mAb [25]: 0.0125
anti-ZIKV antibody 289-3 (antibody, V domains shown, also called clone 289-3; subclone 289-3) VH: QEELEESGGDLVKPGASLTLTCKASGFSFSSGAYICWVRQAPGKGPEWIACIYTGDGRTYYANWAKRRFTISSSSSTTVALEMPSLTDADTATYFCARAIAVGAGYGVGNYFTLWGPGTLVTVSS VL: DIVMTQTPSSVSAAVGGTVTINCHASENIYGYLSWYQQKPGQPPKLLIYKASTLASGVPSRFKGSGAGTQFTLTITALECADAATYYCQSYYTSSSNADGSENAFGGGTEVVVEG	0.52	0.02	0.000113	0.00724	1.04	4.55	0.94	-0.01	0.46	0.09	0.4	3.79	0.01	0.04	0.07	0.24	0.02	0.0428	0.0128	0.0047	ELISA OD [20]: 3.21 OD; VLP (OD) binding [22]: 0.94 OD; response of 2nd mAb [23]: 0.0265; response of 2nd mAb [24]: 0.0011; response of 2nd mAb [25]: 0.0064
